According to PMC12186524:

How the values were obtained:
[1] = target: ArbB2 Met160Ala (Coffea arabica)
[2] = target: ArbB2 Pro242Ala (Coffea arabica)

- loss of activity (relative conversion of ArbA2-FLWGY to product) against ArbB2 (% loss of activity) [1]: 60
- loss of activity (relative conversion of ArbA2-FLWGY to product) against ArbB2 (% loss of activity) [2]: 90
Binder: GNTLKDFESKPGSFLWGYQG [ArbA2_(58–77) (ArbA2-FLWGY)]
